Measured values reported in patent US20160186156A1 (YEDA RESEARCH AND DEVELOPMENT, published 2016).

Molecular target: T1, primary hexavalent scaffold CohII-C-A-CBM-T-G-F
T1 chain: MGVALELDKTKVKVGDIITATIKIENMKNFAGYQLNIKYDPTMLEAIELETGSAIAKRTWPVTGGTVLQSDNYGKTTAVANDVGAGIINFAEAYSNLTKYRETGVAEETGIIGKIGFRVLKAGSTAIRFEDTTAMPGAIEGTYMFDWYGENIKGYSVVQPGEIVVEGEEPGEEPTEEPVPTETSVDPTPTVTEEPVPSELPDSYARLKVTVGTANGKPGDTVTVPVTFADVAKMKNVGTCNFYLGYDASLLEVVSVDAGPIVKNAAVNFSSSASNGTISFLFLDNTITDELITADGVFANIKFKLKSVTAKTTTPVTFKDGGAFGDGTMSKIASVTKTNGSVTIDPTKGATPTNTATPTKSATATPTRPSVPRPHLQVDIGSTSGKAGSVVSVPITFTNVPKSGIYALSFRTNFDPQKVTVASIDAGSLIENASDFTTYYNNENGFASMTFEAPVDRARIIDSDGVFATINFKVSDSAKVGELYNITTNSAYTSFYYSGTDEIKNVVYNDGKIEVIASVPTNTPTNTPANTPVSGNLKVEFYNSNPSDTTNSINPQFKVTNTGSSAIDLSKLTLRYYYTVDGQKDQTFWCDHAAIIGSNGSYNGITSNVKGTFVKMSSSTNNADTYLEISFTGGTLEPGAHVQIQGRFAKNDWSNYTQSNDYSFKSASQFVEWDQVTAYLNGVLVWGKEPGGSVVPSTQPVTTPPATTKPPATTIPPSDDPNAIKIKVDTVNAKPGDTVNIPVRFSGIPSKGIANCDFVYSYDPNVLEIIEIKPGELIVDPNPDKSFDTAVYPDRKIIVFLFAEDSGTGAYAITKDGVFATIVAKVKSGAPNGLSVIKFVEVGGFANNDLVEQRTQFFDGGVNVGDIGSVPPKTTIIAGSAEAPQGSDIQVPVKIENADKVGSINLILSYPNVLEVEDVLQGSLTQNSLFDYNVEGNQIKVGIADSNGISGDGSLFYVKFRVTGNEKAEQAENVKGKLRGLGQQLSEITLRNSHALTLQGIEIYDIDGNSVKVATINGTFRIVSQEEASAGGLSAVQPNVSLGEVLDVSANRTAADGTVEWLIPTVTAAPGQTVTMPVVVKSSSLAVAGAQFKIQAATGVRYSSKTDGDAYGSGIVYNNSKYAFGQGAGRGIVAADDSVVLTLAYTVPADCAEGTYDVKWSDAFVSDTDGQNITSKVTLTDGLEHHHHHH
Assay: cell-based or functional assay

B1: adaptor scaffold CBM-A-B-T-DockII (other)
chain: MANTPVSGNLKVEFYNSNPSDTTNSINPQFKVTNTGSSAIDLSKLTLRYYYTVDGQKDQTFWCDHAAIIGSNGSYNGITSNVKGTFVKMSSSTNNADTYLEISFTGGTLEPGAHVQIQGRFAKNDWSNYTQSNDYSFKSASQFVEWDQVTAYLNGVLVWGKEPGGSVVPSTQPVTTPPATTKPPATTKPPATTIPPSGSDLQVDIGSTSGKAGSVVSVPITFTNVPKSGIYALSFRTNFDPQKVTVASIDAGSLIENASDFTTYYNNENGFASMTFEAPVDRARIIDSDGVFATINFKVSDSAKVGELYNITTNSAYTSFYYSGTDEIKNVVYNDGKIEVIASPTPTQSATPTVTPSATATPTQSATPTVTPSSPGNKMKIQIGDVKANQGDTVIVPITFNEVPVMGVNNCNFTLAYDKNIMEFISADAGDIVTLPMANYSYNMPSDGLVKFLYNDQAQGAMSIKEDGTFANVKFKIKQSAAFGKYSVGIKAIGSISALSNSKLIPIESIFKDGSITVTNTPTNTISVTPTNNSTPTNNSTPKPNPLSDGVVVEIGKVTGSVGTTVEIPVYFRGVPSKGIANCDFVFRYDPNVLEIIGIDPGDIIVDPNPTKSFDTAIYPDRKIIVFLFAEDSGTGAYAITKDGVFAKIRATVKSSAPGYITFDEVGGFADNDLVEQKVSFIDGGVNVGNATRSTNKPVIEGYKVSGYILPDFSFDATVAPLVKAGFKVEIVGTELYAVTDANGYFEITGVPANASGYTLKISRATYLDRVIANVVVTGDTSVSTSQAPIMMWVGDIVKDNSINLLDVAEVIRCFNATKGSANYVEELDINRNGAINMQDIMIVHKHFGATSSDYDAQLEHHHHHH
B1 was tested, and the “wheat straw degradation, reducing sugars released after 48 hours incubation at 50 C (FIG. 5, Column 7 against Columns 4 and 6)” value was roughly 2 fold.
